B1: peptide 22 (Table 18) (peptide)
peptide: Trimesoyl-P[Sar][dD][Pip′][2Nal]RR[dF][Dap]F[2Nal]RRRR[Dap]K-NH2
modifications: linker (positions not given here) via Trimesoyl; not fully specified (some residues, bridges); printed as bicyclo[Tm-(Pro-Sar-D-Asp-Pip-Nal-Arg-Arg-D-Phe)-Dap-(Phe-Nal-Arg-Arg-Arg-Arg-Dap)]-Lys
B2: peptide 14 (Table 18) (peptide)
peptide: Trimesoyl-P[Sar][dD][Pip′][2Nal]R[βAla][dA][Dap]F[2Nal]RRRR[Dap]K-NH2
modifications: linker (positions not given here) via Trimesoyl; not fully specified (some residues, bridges); printed as bicyclo[Tm-(Pro-Sar-D-Asp-Pip-Nal-Arg-β-Ala-D-Ala)-Dap-(Phe-Nal-Arg-Arg-Arg-Arg-Dap)]-Lys
B3: peptide 42 (Table 18) (peptide)
peptide: Trimesoyl-[dF][Phe(4-F)][dT][Pip′][2Nal]RA[dF][Dap]RRRR[2Nal]F[Dap]K
modifications: linker (positions not given here) via Trimesoyl; not fully specified (C-terminus, bridges); printed as bicyclo[Tm-(D-Phe-Fpa-D-Thr-Pip-Nal-Arg-Ala-D-Phe)-Dap-(Arg-Arg-Arg-Arg-Nal-Phe-Dap)]-Lys
B4: peptide 44 (Table 18) (peptide)
peptide: Trimesoyl-[dF][Phe(4-F)][dT][Pip′][2Nal]RA[dF][Dap]R[2Nal]RFRR[Dap]K
modifications: linker (positions not given here) via Trimesoyl; not fully specified (C-terminus, bridges); printed as bicyclo[Tm-(D-Phe-Fpa-D-Thr-Pip-Nal-Arg-Ala-D-Phe)-Dap-(Arg-Nal-Arg-Phe-Arg-Arg-Dap)]-Lys
B5: peptide 41 (Table 18) (peptide)
peptide: Trimesoyl-[d4Phe][Phe(4-F)][dhGlu][Pip][2Nal]RA[dF][Dap]F[2Nal]RRRR[Dap]K
modifications: linker (positions not given here) via Trimesoyl; not fully specified (bridges); printed as bicyclo[Tm-(D-4-Phe-Fpa-D-homoGlu-Pip-Nal-Arg-Ala-D-Phe)-Dap-(Phe-Nal-Arg-Arg-Arg-Arg-Dap)]-Lys; reading uncertain
B6: peptide 46 (Table 18) (peptide)
peptide: [dA][Sar][d(pT)][Pip′][2Nal]YQK
modifications: lactam (positions not given here); not fully specified (C-terminus, bridges); printed as cyclo(D-Ala-Sar-D-pThr-Pip-Nal-Tyr-Gln)-Lys
B7: peptide 38 (Table 18) (peptide)
peptide: Trimesoyl-[dPhe(4-CN)][Phe(4-F)][dT][Pip′][2Nal]RA[dF][Dap]F[2Nal]RRRR[Dap]K
modifications: linker (positions not given here) via Trimesoyl; not fully specified (C-terminus, bridges); printed as bicyclo[Tm-(D-4-CyanoPhe-Fpa-D-Thr-Pip-Nal-Arg-Ala-D-Phe)-Dap-(Phe-Nal-Arg-Arg-Arg-Arg-Dap)]-Lys
B8: peptide 15 (Table 18) (peptide)
peptide: Trimesoyl-P[Sar][dD][Pip′][2Nal]R[βAla][βAla][Dap]F[2Nal]RRRR[Dap]K-NH2
modifications: linker (positions not given here) via Trimesoyl; not fully specified (some residues, bridges); printed as bicyclo[Tm-(Pro-Sar-D-Asp-Pip-Nal-Arg-β-Ala-β-Ala)-Dap-(Phe-Nal-Arg-Arg-Arg-Arg-Dap)]-Lys
B9: peptide 12 (Table 18) (peptide)
peptide: Trimesoyl-[dF][Phe(4-F)][dT][Pip′][2Nal]R[Dap]F[2Nal]RRRR[Dap]K-NH2
modifications: linker (positions not given here) via Trimesoyl; not fully specified (some residues, bridges); printed as bicyclo[Tm-(D-Phe-Fpa-D-Thr-Pip-Nal-Arg)-Dap-(Phe-Nal-Arg-Arg-Arg-Arg-Dap)]-Lys
B10: peptide 35 (Table 18) (peptide)
peptide: Trimesoyl-[D‑2‑Fpa][Phe(4-F)][dT][Pip′][2Nal]RA[dF][Dap]F[2Nal]RRRR[Dap]K
modifications: linker (positions not given here) via Trimesoyl; not fully specified (C-terminus, bridges); printed as bicyclo[Tm-(D-2-Fpa-Fpa-D-Thr-Pip-Nal-Arg-Ala-D-Phe)-Dap-(Phe-Nal-Arg-Arg-Arg-Arg-Dap)]-Lys
B11: peptide 10 (Table 18) (peptide)
peptide: Trimesoyl-P[Sar][dD][Pip′][2Nal]R[Dap]F[2Nal]RRRR[Dap]K-NH2
modifications: linker (positions not given here) via Trimesoyl; not fully specified (some residues, bridges); printed as bicyclo[Tm-(Pro-Sar-D-Asp-Pip-Nal-Arg)-Dap-(Phe-Nal-Arg-Arg-Arg-Arg-Dap)]-Lys
B12: peptide 43 (Table 18) (peptide)
peptide: Trimesoyl-[dF][Phe(4-F)][dT][Pip′][2Nal]RA[dF][Dap]RR[2Nal]FRR[Dap]K
modifications: linker (positions not given here) via Trimesoyl; not fully specified (C-terminus, bridges); printed as bicyclo[Tm-(D-Phe-Fpa-D-Thr-Pip-Nal-Arg-Ala-D-Phe)-Dap-(Arg-Arg-Nal-Phe-Arg-Arg-Dap)]-Lys
B13: peptide 39 (Table 18) (peptide)
peptide: Trimesoyl-[D‑4‑Phe][Phe(4-F)][dI][Pip′][2Nal]RA[dF][Dap]F[2Nal]RRRR[Dap]K
modifications: linker (positions not given here) via Trimesoyl; not fully specified (C-terminus, bridges); printed as bicyclo[Tm-(D-4-Phe-Fpa-D-Ile-Pip-Nal-Arg-Ala-D-Phe)-Dap-(Phe-Nal-Arg-Arg-Arg-Arg-Dap)]-Lys; reading uncertain
B14: peptide 45 (Table 18) (peptide)
peptide: Trimesoyl-[dF][Phe(4-F)][dT][Pip′][2Nal]RA[dF][Dap][dR]R[dR]R[2Nal][dF][Dap]K
modifications: linker (positions not given here) via Trimesoyl; not fully specified (C-terminus, bridges); printed as bicyclo[Tm-(D-Phe-Fpa-D-Thr-Pip-Nal-Arg-Ala-D-Phe)-Dap-(D-Arg-Arg-D-Arg-Arg-Nal-D-Phe-Dap)]-Lys
B15: peptide 27 (Table 18) (peptide)
peptide: Trimesoyl-[dF][Phe(4-F)][dT][Pip′][2Nal]RA[dF][Dap]F[2Nal]RRRR[Dap]K-NH2
modifications: linker (positions not given here) via Trimesoyl; not fully specified (some residues, bridges); printed as bicyclo[Tm-(D-Phe-4-Fpa-D-Thr-Pip-Nal-Arg-Ala-D-Phe)-Dap-(Phe-Nal-Arg-Arg-Arg-Arg-Dap)]-Lys
B16: peptide 36 (Table 18) (peptide)
peptide: Trimesoyl-[D‑3‑Fpa][Phe(4-F)][dT][Pip′][2Nal]RA[dF][Dap]F[2Nal]RRRR[Dap]K
modifications: linker (positions not given here) via Trimesoyl; not fully specified (C-terminus, bridges); printed as bicyclo[Tm-(D-3-Fpa-Fpa-D-Thr-Pip-Nal-Arg-Ala-D-Phe)-Dap-(Phe-Nal-Arg-Arg-Arg-Arg-Dap)]-Lys
B17: peptide 11 (Table 18) (peptide)
peptide: Trimesoyl-[dF][Phe(4-F)][dT][Pip][2Nal]RA[Dap]F[2Nal]RRRR[Dap]K
modifications: linker (positions not given here) via Trimesoyl; not fully specified (C-terminus, bridges); printed as bicyclo[Tm-(D-Phe-Fpa-D-Thr-Pip-Nal-Arg-Ala)-Dap-(Phe-Nal-Arg-Arg-Arg-Arg-Dap)]-Lys; also: FITC on C-terminal Lys side chain (FA labeling)
B18: peptide 16 (Table 18) (peptide)
peptide: Trimesoyl-P[Sar][dD][Pip′][2Nal]RA[dA][dA][Dap]F[2Nal]RRRR[Dap]K-NH2
modifications: linker (positions not given here) via Trimesoyl; not fully specified (some residues, bridges); printed as bicyclo[Tm-(Pro-Sar-D-Asp-Pip-Nal-Arg-Ala-D-Ala-D-Ala)-Dap-(Phe-Nal-Arg-Arg-Arg-Arg-Dap)]-Lys
B19: peptide 17 (Table 18) (peptide)
peptide: Trimesoyl-P[Sar][dD][Pip′][2Nal]RY[dA][Dap]F[2Nal]RRRR[Dap]K-NH2
modifications: linker (positions not given here) via Trimesoyl; not fully specified (some residues, bridges); printed as bicyclo[Tm-(Pro-Sar-D-Asp-Pip-Nal-Arg-Tyr-D-Ala)-Dap-(Phe-Nal-Arg-Arg-Arg-Arg-Dap)]-Lys

Starred links: 1 amine or outer side, 2 acyl side, 3 side chain; linkers in the order of their positions; H or OH if unused. Non-standard residues stand in square brackets, D forms with d. Primed or numbered codes have the meaning given here. No end group written: not given here. Trimesoyl = O=C(c1cc(C(=O)[*:2])cc(C(=O)[*:3])c1)[*:1]; dPhe(4-CN) = N#Cc1ccc(C[C@@H](N)C(=O)O)cc1; d(pT) = C[C@H](OP(=O)(O)O)[C@@H](N)C(=O)O; Phe(4-F) = N[C@@H](Cc1ccc(F)cc1)C(=O)O; 2Nal = N[C@@H](Cc1ccc2ccccc2c1)C(=O)O; Pip′ = L-homoproline (pipecolyl); D‑4‑Phe = not defined here; Pip = O=C(O)[C@@H]1CCCCN1; d4Phe = not defined here; Dap = NC[C@H](N)C(=O)O; βAla = NCCC(=O)O; Sar = CNCC(=O)O

This assay has as its target Pin1 (Example 6, construct not stated) (human) (UniProt Q13526). The assay can be described thus: fluorescence anisotropy.
B1 registered a Kd of 480 nM and a fold increase of Pin1 inhibitory activity on substitution of D-Phe for D-Ala of 2 fold. Molecule B2 came in with a Kd of 1750 nM. Regarding B3, the Kd was determined as 980 nM. On to B4, for which the Kd was found to be 450 nM. Same read-out and setting: the result for B5 reads 870 nM. On to B6, for which the Kd came to 240 nM. On the same count and under the same terms, the result for B7 reads 350 nM; that for B8, 4830 nM; that for B9, 2360 nM. The same measure, in the same setting: the result for B10 reads 590 nM; that for B11, 3420 nM. In turn, B12 had a Kd of 1380 nM.

B13 returned a Kd of 460 nM.

With B14, the Kd turned out to be 3100 nM. B15 registered a Kd of 270 nM and a fold improvement of binding affinity against peptide 4 of 2 fold.

The molecule B16 gave a Kd of 390 nM. The same measure, in the same setting: the result for B17 reads 900 nM. Still for that read-out and setting: the result for B18 reads 2490 nM; that for B19, 2170 nM.

(Values after US20170355730A1.)
